Consider 2 substances from article PMC6362458 (Journal of the American Chemical Society, 2017).

Data set [1] is described as follows: Isoelectric point determination by IEF gel electrophoresis. The following applies: data not shown. The data set is classed as physicochemical.
For data set [2] the following is noted: cited from earlier work.
Data set [3] in a line: Photolysis of P2-insulin suspension in pH 7.2 PBS. The format is physicochemical.
Data set [4] is described as follows: Visual precipitation on pH shift and clarification on photolysis. The data set is classed as physicochemical. The following applies: 75µM, 10 minutes 365nm LED (1.84 mW/cm^2).
For data set [5] the following is noted: 2 h.

Turning to insulin, the “pI of insulin reacted with uncharged DMNPE derivative vs native insulin” value in data set [1] was found to be 5.4. In data set [2], the “pI (isoelectric point)” value was 5.4.
For “P2-Insulin: insulin with two pyrrolidines linked via the photocleavable DMNPE group; likely mixture of modified carboxyl sites”, the “Insulin released from unirradiated control suspension” value in data set [3] (pH 7.2 PBS suspension processed identically, no 365 nm irradiation, IEF gel) is on record as “no insulin released”. Further, in data set [3] (pH 7.2 PBS, IEF gel of supernatant), the “P2-insulin in supernatant of irradiated suspension” value was “no detectable P2-insulin”. The “Appearance of pH 7.2 suspension after irradiation” value in data set [4] was “substantially clarified the suspension”. In addition, the “Solubility at pH 4” value in data set [5] was 216 µM.
